Tests used:
Assay in all cases: cell-based or functional assay
[1] = biological target: HIV-1 Env of isolate 92WR024 (subtype A) (HIV-1)
[2] = biological target: HIV-1 Env of isolate MGRM-G-014 (HIV-1)
[3] = biological target: HIV-1 Env of isolate 92WR009 (subtype A) (HIV-1)
[4] = biological target: HIV-1 envelope glycoprotein (Env) of isolate 6535.3 (HIV-1)
[5] = biological target: HIV-1 Env of isolate 92WR020 (subtype A) (HIV-1)
[6] = biological target: HIV-1 envelope glycoprotein (Env) of isolate APV_13 (HIV-1)
[7] = biological target: HIV-1 Env of isolate MGRM-G-004 (HIV-1)
[8] = biological target: HIV-1 Env of isolate 92RW008 (subtype A) (HIV-1)
[9] = biological target: HIV-1 Env of isolate MGRM-G-009 (HIV-1)
[10] = biological target: HIV-1 Env of isolate MGRM-G-016 (HIV-1)
[11] = biological target: HIV-1 Env of isolate 92WR026 (subtype A) (HIV-1)
[12] = biological target: HIV-1 Env of isolate 93WR029 (subtype A) (HIV-1)
[13] = biological target: HIV-1 envelope glycoprotein (Env) of isolate APV_17 (HIV-1)
[14] = biological target: HIV-1 envelope glycoprotein (Env) of isolate JR-FL (HIV-1)
[15] = biological target: HIV-1 Env of isolate 92TH021 (subtype AE) (HIV-1)
[16] = biological target: HIV-1 Env of isolate MGRM-G-006 (HIV-1)
[17] = biological target: HIV-1 envelope glycoprotein (Env) of isolate MGRM-Chronic-B-004 (HIV-1)
[18] = biological target: HIV-1 envelope glycoprotein (Env) of isolate MGRM-Chronic-B-003 (HIV-1)
[19] = biological target: HIV-1 Env of isolate MGRM-G-027 (HIV-1)
[20] = biological target: HIV-1 Env of isolate MGRM-AE-002 (subtype AE) (HIV-1)
[21] = biological target: HIV-1 envelope glycoprotein (Env) of isolate MGRM-Chronic-B-001 (HIV-1)
[22] = biological target: HIV-1 Env of isolate MGRM-AE-004 (subtype AE) (HIV-1)
[23] = biological target: HIV-1 Env of isolate MGRM-G-025 (HIV-1)
[24] = biological target: aMLV envelope (negative control pseudovirus)
[25] = biological target: HIV-1 envelope glycoprotein (Env) of isolate 92BR020 (HIV-1)
[26] = biological target: HIV-1 Env of isolate MGRM-AE-001 (subtype AE) (HIV-1)
[27] = biological target: HIV-1 Env of isolate 92WR021 (subtype A) (HIV-1)
[28] = biological target: HIV-1 envelope glycoprotein (Env) of isolate MGRM-Chronic-B-008 (HIV-1)
[29] = biological target: HIV-1 envelope glycoprotein (Env) of isolate MGRM-Chronic-B-002 (HIV-1)
[30] = biological target: HIV-1 Env of isolate MGRM-AE-006 (subtype AE) (HIV-1)
[31] = biological target: HIV-1 Env of isolate MGRM-G-013 (HIV-1)
[32] = biological target: HIV-1 Env of isolate MGRM-G-028 (HIV-1)
[33] = biological target: HIV-1 envelope glycoprotein (Env) of isolate CAAN.A2 (HIV-1)
[34] = biological target: HIV-1 Env of isolate 94UG103 (subtype A) (HIV-1)
[35] = biological target: HIV-1 envelope glycoprotein (Env) of isolate APV_6 (HIV-1)
[36] = biological target: HIV-1 Env of isolate 92UG037 (subtype A) (HIV-1)
[37] = biological target: HIV-1 Env of isolate 93UG077 (subtype A) (HIV-1)
[38] = biological target: HIV-1 Env of isolate 94 KE 105 (subtype AC) (HIV-1)
[39] = biological target: HIV-1 envelope glycoprotein (Env) of isolate 93TH305 (HIV-1)
[40] = biological target: HIV-1 Env of isolate 92UG031 (subtype A) (HIV-1)
[41] = biological target: HIV-1 Env of isolate MGRM-AE-005 (subtype AE) (HIV-1)
[42] = biological target: HIV-1 Env of isolate MGRM-G-011 (HIV-1)
[43] = biological target: HIV-1 Env of isolate VLGCA1 (subtype A) (HIV-1)
[44] = biological target: HIV-1 Env of isolate MGRM-G-019 (HIV-1)
[45] = biological target: HIV-1 Env of isolate MGRM-G-001 (HIV-1)
[46] = biological target: HIV-1 Env of isolate CMU02 (subtype AE) (HIV-1)
[47] = biological target: HIV-1 Env of isolate MGRM-G-015 (HIV-1)
[48] = biological target: HIV-1 Env of isolate MGRM-AE-003 (subtype AE) (HIV-1)
[49] = biological target: HIV-1 Env of isolate MGRM-G-017 (HIV-1)
[50] = biological target: HIV-1 Env of isolate MGRM-G-024 (HIV-1)

Sequence of 4995_P16 (PGT-145) (antibody) (VH): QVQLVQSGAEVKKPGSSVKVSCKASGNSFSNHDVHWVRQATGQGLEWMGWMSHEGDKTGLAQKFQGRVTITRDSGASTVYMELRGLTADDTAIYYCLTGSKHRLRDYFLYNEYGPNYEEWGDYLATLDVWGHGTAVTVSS
Sequence of 4995_P16 (PGT-145) (antibody) (VL): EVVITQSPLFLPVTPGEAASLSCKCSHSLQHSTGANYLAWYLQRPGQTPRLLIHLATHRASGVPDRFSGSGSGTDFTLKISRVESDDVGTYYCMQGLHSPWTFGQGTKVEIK

4995_P16 (PGT-145) (antibody)
IC50 (µg/mL), pseudovirus neutralization [1]: 0.069 µg/mL
IC50 (µg/mL), pseudovirus neutralization [2]: 0.144 µg/mL
IC50 (µg/mL), pseudovirus neutralization [3]: 0.026 µg/mL
IC50 (µg/mL), pseudovirus neutralization [4]: > 50 µg/mL
IC50 (µg/mL), pseudovirus neutralization [5]: 0.997 µg/mL
IC50 (µg/mL), pseudovirus neutralization [6]: 0.337 µg/mL
IC50 (µg/mL), pseudovirus neutralization [7]: > 50 µg/mL
IC50 (µg/mL), pseudovirus neutralization [8]: 0.4 µg/mL
IC50 (µg/mL), pseudovirus neutralization [9]: 0.982 µg/mL
IC50 (µg/mL), pseudovirus neutralization [10]: 0.081 µg/mL
IC50 (µg/mL), pseudovirus neutralization [11]: 1.45 µg/mL
IC50 (µg/mL), pseudovirus neutralization [12]: > 50 µg/mL
IC50 (µg/mL), pseudovirus neutralization [13]: 0.488 µg/mL
IC50 (µg/mL), pseudovirus neutralization [14]: 30.4 µg/mL
IC50 (µg/mL), pseudovirus neutralization [15]: 0.013 µg/mL
IC50 (µg/mL), pseudovirus neutralization [16]: 0.286 µg/mL
IC50 (µg/mL), pseudovirus neutralization [17]: 0.023 µg/mL
IC50 (µg/mL), pseudovirus neutralization [18]: 0.045 µg/mL
IC50 (µg/mL), pseudovirus neutralization [19]: 0.433 µg/mL
IC50 (µg/mL), pseudovirus neutralization [20]: 1.87 µg/mL
IC50 (µg/mL), pseudovirus neutralization [21]: 3.22 µg/mL
IC50 (µg/mL), pseudovirus neutralization [22]: 0.006 µg/mL
IC50 (µg/mL), pseudovirus neutralization [23]: > 50 µg/mL
IC50 (µg/mL), pseudovirus neutralization [24]: > 50 µg/mL
IC50 (µg/mL), pseudovirus neutralization [25]: 1.05 µg/mL
IC50 (µg/mL), pseudovirus neutralization [26]: 20.9 µg/mL
IC50 (µg/mL), pseudovirus neutralization [27]: 1.62 µg/mL
IC50 (µg/mL), pseudovirus neutralization [28]: 1.9 µg/mL
IC50 (µg/mL), pseudovirus neutralization [29]: 3.67 µg/mL
IC50 (µg/mL), pseudovirus neutralization [30]: > 50 µg/mL
IC50 (µg/mL), pseudovirus neutralization [31]: > 50 µg/mL
IC50 (µg/mL), pseudovirus neutralization [32]: 0.046 µg/mL
IC50 (µg/mL), pseudovirus neutralization [33]: 7.08 µg/mL
IC50 (µg/mL), pseudovirus neutralization [34]: 0.331 µg/mL
IC50 (µg/mL), pseudovirus neutralization [35]: 0.104 µg/mL
IC50 (µg/mL), pseudovirus neutralization [36]: 3.15 µg/mL
IC50 (µg/mL), pseudovirus neutralization [37]: > 50 µg/mL
IC50 (µg/mL), pseudovirus neutralization [38]: 1.32 µg/mL
IC50 (µg/mL), pseudovirus neutralization [39]: 0.032 µg/mL
IC50 (µg/mL), pseudovirus neutralization [40]: 3.22 µg/mL
IC50 (µg/mL), pseudovirus neutralization [41]: 0.967 µg/mL
IC50 (µg/mL), pseudovirus neutralization [42]: 0.028 µg/mL
IC50 (µg/mL), pseudovirus neutralization [43]: 8.01 µg/mL
IC50 (µg/mL), pseudovirus neutralization [44]: 0.041 µg/mL
IC50 (µg/mL), pseudovirus neutralization [45]: 0.028 µg/mL
IC50 (µg/mL), pseudovirus neutralization [46]: 1.43 µg/mL
IC50 (µg/mL), pseudovirus neutralization [47]: 10.5 µg/mL
IC50 (µg/mL), pseudovirus neutralization [48]: 0.552 µg/mL
IC50 (µg/mL), pseudovirus neutralization [49]: 0.205 µg/mL
IC50 (µg/mL), pseudovirus neutralization [50]: 0.06 µg/mL
